Values quoted from earlier work in patent US9168216B2, “Carrier comprising one or more di and/or mono-(electron transfer agent) phosphate derivatives or complexes thereof” (priority 2005, dated 2015).

Settings: subcutaneous, 25 μg/kg body weight

## PTH: human parathyroid hormone (fragment 1-34)
  Time of peak PTH level in rat plasma after injection: 40 to 60 min
  Time to complete turnover of PTH in plasma: ≤ 4 h
